Measured values as given in patent US12611443B2, “Methods and compositions related to therapeutic peptides for cancer therapy” (THE UNIVERSITY OF CHICAGO, priority 2018, dated 2026).

Legend:
[1] = tested on: cancer cells; assay: ELANE internalization by cancer cells and effect of endocytosis inhibitor; type: cell-based
Procedure: (§1) FIGS. 1A-1K. ELANE cleaves CD95 to selectively kill cancer cells. (A): Heatmap summary of ELANE's effects on survival, stress, and apoptosis pathways in cancer cells and healthy cells. (B-C): Cancer cells were treated with ELANE (100 nM) and CD95 cleavage was assessed by western blotting using anti-N-terminal (B) or anti-C-terminal antibodies (C). *, lower molecular weight CD95 fragment. (D): Cancer cells or non-cancer cells were transduced to overexpress CD95 proteins, and effects on ELANE-mediated apoptosis were quantified by ANXAS at 30 min. n=2/group. See FIG. 1I for transduction and CD95 over-expression. (E): Cleavage of recombinant human CD95 N-terminal (aa 1-173) or C-terminal (aa 212-335) proteins by ELANE was assessed by SDS-PAGE and Coomassie blue staining. (F): Bands from (E) were digested with trypsin and analyzed by mass spectrometry to identify putative ELANE cleavage sites (i.e., peptides with non-tryptic ends). Major non-tryptic peptides were quantified by ion chromatograms. (G): Schematic of ELANE cleavage sites in CD95. […] (H): Cleavage of recombinant peptides corresponding to aa 214-231 and aa 317-335 in CD95 by ELANE was monitored by mass spectrometry. (I): Cancer cells or non-cancer cells were treated with fluorescein-labeled ELANE for 10 min and uptake was visualized by immunofluorescence. (J): ELANE catalytic activity in cancer cell lysates following exposure to ELANE for 30 mins in the presence and absence of Dynasore (60 μM endocytosis inhibitor). Effect of Dynasore on cancer cell killing capability of ELANE (measured by calcein-AM). n=6/group. (K): Cancer cells or non-cancer cells were transduced to overexpress various CD95 proteins, and cell viability in the absence of ELANE was determined by calcein-AM. n=10/group. *, p<0.05 Student's t-test.

[2] = tested on: tumors (MDA-MB-231, A549, MEL888, M1, 4195, E0771, LLC1, B16F10); assay: Intra-tumoral treatment of tumor models (xenograft, PDX, syngeneic); type: in vivo, mice; conditions: E0771 TNBC model, IT, 12 μg/day
Procedure: Tumor inoculation and treatment. MDA-MB-231 cells (2×10^6), A549 cells (2×10^6) with Matrix Type 3), or MEL888 cells (2×10^6 with Matrix Type 3) were injected into athymic nude mice (Charles River); M1 or 4195 cells (50,000) were injected into NOD.SCID mice (JAX); and E0771 cells (0.5×10^6), LLC1 cells (0.5×10^6), or B16F10 cells (1×10^6), were injected into C57BL/6 mice (JAX). For TNBC models (MDA-MB-231, E0771, M1, 4195), cells were injected into the 4th mammary fat pad of the right ventral side. For all other models (A549, LLC1, MEL888, B16F10), cells were injected into the flank. Once tumors reached ˜100 mm^3, ELANE or PMSF-ELANE (11.6 μg/100 μL), or neutrophil medias or HSA (50 μg/100 μL) were delivered IT once/day for 5 days. Tumor volume was assessed by calipers, and experiments were terminated when tumor volume in control mice reached >1000 mm^3.
Tumor immunohistochemistry. Tumors were fixed in 4% paraformaldehyde in PBS for 24 h, embedded in paraffin blocks, and sectioned (5 μm). Slides were stained with cCASP3 (9661) and cPARP (9625) antibodies from Cell Signaling Technology. Signals were developed using the VECTASTAIN ABC kit (Vector Laboratories) or fluorescently-labeled secondary antibodies (melanoma models). For the TUNEL assay, staining was performed with the DeadEnd™ colorimetric or fluorometric TUNEL systems (Promega). Cell nuclei were labeled with haematoxylin or Hoechst 33342 (ThermoFisher Scientific). Images were obtained with a Nikon Eclipse Ti2 microscope and analyzed using NIS-Elements software.

[3] = tested on: human/murine cancer cells; assay: In vitro cell viability of cancer cells (calcein-AM, CASP3, ANXA5); type: cell-based; conditions: catalytic inactivation confirmed
From the text: Cell lines. The ovarian cancer cell lines—CAOV3, OVCAR3, OVCAR4, OVCAR5, A2780, A2780/CP70, HeyA8, TykNu, SKOV3, ID8, and ID8p53-/- were a gift from Dr. Ernst Lengyel, University of Chicago. The breast cancer cell lines—MDA-MB-231, MDA-MB-231.BM1, MCF-7, M6C, E0771, and E0771.LMB were a gift from Dr. Marsha Rosner, University of Chicago. The colon carcinoma cell line RKO, glioblastoma cancer cell line T98G, osteosarcoma cell lines U-2OS and Saos-2, and the hepatocellular carcinoma cell line HepG2 were a gift from Dr. Kay McLeod, University of Chicago. The lung cancer cell line NCI-H552 was a gift from Dr. Stephanie Huang, University of Chicago, and A549 and LLC1 cells were purchased from ATTC. The melanoma cell lines—B16F10, Mel888, Mel1106, and SK-MEL-28 cells were a gift from Dr. Thomas Gajewski, University of Chicago. The pancreatic cancer cell line PANC1 was a gift from Dr. Yamuna Krishnan, University of Chicago. The leukemia cell line K562 was a gift from Dr. Amittha Wickrema, University of Chicago.
The prostate cancer cell lines—CWR22Rv1, LAPC4, and LNCaP were a gift from Dr. Donald Vander Griend, University of Chicago. The neuroblastoma cell lines—SK-N-BE(2) and NBL-WN cells were a gift from Dr. Lucy Godley, University of Chicago.
Neutrophil media collections. Freshly isolated human or murine neutrophils were plated in serum-free DMEM for 24 h. Conditioned media was collected, spun at 500×g for 5 min, and media protein levels were determined with a Bradford assay (Biorad).
PMN media manipulations. For boiling, PMN media was boiled at 95° C. for 5 min and spun at 15,000×g for 10 min to remove precipitated proteins. For dialysis, PMN media was placed into a Slide-a-Lyzer™ cassette (3.5 kDa cutoff, ThermoFisher Scientific) and dialyzed against 2×4L of PBS at 4° C. for 4 h. For PMSF-inactivation, PMN media was treated with PMSF (1 mM, Sigma) or A1AT (42 nM, Athens Research & Technology) and incubated at room temperature for up to 2 h. Residual PMSF was eliminated with a PD-10 desalting column (GE Healthcare Life). Inhibition of ELANE catalytic activity was confirmed using a chromogenic substrate activity assay (see below). For serum-spiking experiments, human, mouse, or fetal bovine serum (1% or 10%) was added to PMN media prior to or after exposing cancer cells. For immune-depletion studies, ELANE or ECP were immunoprecipitated using anti-ELANE (N2C3, GeneTx) or anti-ECP (MB S2535165, MyBioSource) coupled to Pierce™ Protein A/G Magnetic Beads (ThermoFisher Scientific).
(§2) In vitro cell viability assays. […] Luminescence was measured using a Victor X3 luminometer (PerkinElmer).

[4] = tested on: human and murine cancer cells; assay: CD95 overexpression, ELANE-mediated apoptosis (ANXA5); type: cell-based; conditions: ELANE 40 nM, ANXA5 at 30 min
Procedure: FIGS. 2A-2D Overexpressing CD95 proteins accelerates cancer cell killing by ELANE. Polycistronic adenoviral vectors were prepared to express the human and mouse CD95 sequences followed by the Encephalomyocarditis virus (EMCV) internal ribosome entry site and dTomato sequence under the control of the cytomegalovirus (CMV) promoter. Human and murine cancer cells or non-cancer cells were transduced to over-express full-length CD95, N-terminal CD95 (human: aa 1-209; mouse: aa 1-204), or C-terminal CD95 (human: aa 212-335; mouse: aa 204-327). (A): Transduction efficiency quantified by dTomato (Left). CD95 levels in dTomato− and dTomato+ cells quantified by geometric mean (MFI) (Middle). ANXA5 levels in dTomato− and dTomato+ cells 30 min after treatment with ELANE (40 nM) (Right). Representative data for A549 cells are shown. (B-C): Quantification of transduction efficiency (B) and relative CD95 overexpression (C) for cancer cells and non-cancer cells. (D): Quantification of ANXA5 levels following ELANE treatment (40 nM, 30 min) for mouse cancer cell lines (E0771, B16F10). *, p<0.05 Student's t-test.
as §2
(§3) CD95 overexpression studies. Polycistronic adenoviral vectors were prepared to express the human and mouse CD95 sequences followed by the Encephalomyocarditis virus (EMCV) internal ribosome entry site and dTomato sequence under the control of the cytomegalovirus (CMV) promoter (VectorBuilder). Human and murine cancer cells or normal or non-cancer cells were transduced to over-express full-length CD95, N-terminal CD95 (human: aa 1-209; mouse: aa 1-204), C-terminal CD95 (human: aa 212-335; mouse: aa 204-327), or C-terminal CD95 that mimicked ELANE cleavage at site 1 (human: aa 221-335), site 2 (human: aa 212-331), or both sites (aa 221-331). Cancer cells or normal or non-cancer cells were transduced with adenoviruses at an MOI of 50-250 depending on cell type, and expression of dTomato and CD95 (human: 558814; mouse, mouse: 565130, BD Biosciences) were confirmed by flow cytometry. A vector encoding GFP (Vector Builders) was used as a control.

[5] = tested on: cancer cells; assay: CD95 protein overexpression in cancer cells, viability in absence of ELANE (calcein-AM); type: cell-based, human; conditions: transient overexpression
Procedure: as §1, §2, §3

[6] = tested on: MDA-MB-231 cells; assay: Doxycycline-inducible Tet-on expression of C or C1-2 in MDA-MB-231 cells; type: cell-based, human; conditions: Tet-on MDA-MB-231, doxycycline 0.2 or 2 μg/mL, 72 h, Calcein AM
Procedure: FIG. 4 Inducible Expression System. Scheme of doxycycline inducible Tet-on system to express either C (aa. 157-335) or C1-2 (aa. 221-331). C1-2 (DD containing fragment) upon addition of doxycycline (both in vitro and in vivo).
FIG. 5 Confirmation of C1-2 expression and cancer cell selective killing. (A) Tet-on C or C1-2 transduced MDA-MB-231 cells were treated with 2 μg/mL doxycycline (2 μg/mL) for 24 h. Cell lysates were collected for western blot. Confirming the expression of C or C1-2 expression. (B) Tet-on C or C1-2 transduced MDA-MB-231 cells were treated with 0.2 or 2 μg/mL doxycycline for 72 h. Cell viability was measured by Calcein AM. […] (C) Tet-on C1-2 transduced MCF10A cells were treated with 2 μg/mL doxycycline. Cell viability was measured at various time points by Calcein AM.
FIG. 6 In vitro testing MDA-MB-231 cell death post C1-2 induction. (A) Various single colony of Tet-on C1-2 transduced MDA-MB-231 cells were treated with 2 μg/mL doxycycline (2 μg/mL) for 72 h. Cell viability was measured by Calcein AM. Different colonies have different susceptibility of death post C1-2 induction. (B) C1-2 expression of various single colony of Tet-on C1-2 transduced MDA-MB-231 cells post doxycycline treatment were measured by western blot (C), and the level at 24 h was correlated with % death (normalized by full length). […] (C) Immunoblot of C1-2 and full length (FL) CD95 expression for various colony.

O=C(N/N=C/c1ccc(O)c(O)c1)c1cc2ccccc2cc1O [Dynasore] was tested, and the “effect on PMN media-mediated killing” value ([1]; Dynasore) was “protected cancer cells from PMN media-mediated killing”, the “effect on ELANE uptake” value ([1]; Dynasore 60 μM) was “attenuated ELANE uptake” and the “effect on ELANE-induced apoptosis of cancer cells” value ([1]; Dynasore 60 μM) was “protected cancer cells from apoptosis”.

B1: PMSF-ELANE: ELANE inactivated with PMSF (or A1AT) (protein, UniProt P08246 30-267, looked up)
Neutrophil elastase: IVGGRRARPHAWPFMVSLQLRGGHFCGATLIAPNFVMSAAHCVANVNVRAVRVVLGAHNLSRREPTRQVFAVQRIFENGYDPVNLLNDIVILQLNGSATINANVQVAQLPAQGRRLGNGVQCLAMGWGLLGRNRGIASVLQELNVTVVTSLCRRSNVCTLVRGRQAGVCFGDSGSPLVCNGLIHGIASFVRGGCASGLYPDAFAPVAQFVNWIDSIIQRSEDNPCPHPRDPDPASRTH
modifications: PMSF-inactivated
In the case of B1, the “therapeutic benefit, dose finding” value [2] is reported as “did not produce unexpected worsening” and the “cancer cell killing after inactivation with PMSF or A1AT” value [3] is reported as “could no longer kill cancer cells”.

B2: fluorescein-labeled ELANE: fluorescein-labeled ELANE used for uptake (protein, UniProt P08246 30-267, looked up)
Neutrophil elastase: IVGGRRARPHAWPFMVSLQLRGGHFCGATLIAPNFVMSAAHCVANVNVRAVRVVLGAHNLSRREPTRQVFAVQRIFENGYDPVNLLNDIVILQLNGSATINANVQVAQLPAQGRRLGNGVQCLAMGWGLLGRNRGIASVLQELNVTVVTSLCRRSNVCTLVRGRQAGVCFGDSGSPLVCNGLIHGIASFVRGGCASGLYPDAFAPVAQFVNWIDSIIQRSEDNPCPHPRDPDPASRTH
modifications: fluorescein label
notes: fluorescein-labeled ELANE used for uptake
With B2 the “uptake by cancer cells” value ([1]; 10 min, immunofluorescence) was “rapidly internalized”.

B3: C peptide: C-terminal CD95 peptide containing both cleavage sites (aa. 212-335); Tet-on C printed as aa. 157-335 (protein)
chain: SPTLNPETVAINLSDVDLSKYITTIAGVMTLSQVKGFVRKNGVNEAKIDEIKNDNVQDTAEQKVQLLRNWHQLHGKKEAYDTLIKDLKKANLCTLAEKIQTIILKDITSDSENSNFRNEIQSLV
In the case of B3, the “effect of overexpression on ELANE-mediated killing” value [4] is reported as “accelerated ELANE-mediated killing in human cancer cells”, the “effect of overexpression on ELANE-mediated killing” value ([4]; listed as aa. 212-335 of SEQ ID NO:1) is reported as “accelerated ELANE-mediated killing in both human and murine cancer cells” and the “cancer cell death/toxicity on expression in the absence of ELANE” value [5] is reported as “not toxic”. The “cell death/apoptosis on doxycycline-induced expression” value [6] was “did not” and the “cell death/apoptosis on doxycycline-induced expression” value ([6]; listed as C) was “not C caused MDA-MB-231 cell death”.
